From patent US10280442B2, “Mutant sucrose phosphorylases with improved glycosylation activity towards polyphenols” (Universiteit Gent, priority 2015, dated 2019)

What was measured:
[1] = biological target: T1, Thermoanaerobacterium thermosaccharolyticum sucrose phosphorylase (TtSPP) variant R134A, SEQ ID No 1 (Thermoanaerobacterium thermosaccharolyticum, UniProt D9TT09, R134A); experiment: Kinetics of resveratrol glycosylation by variant R134A (co-substrate sucrose); assay type: biochemical; conditions: 1M sucrose as co-substrate, pH 6.5, 55° C., 20% AMMOENG 101
T1 sequence (D9TT09 1-488 R134A): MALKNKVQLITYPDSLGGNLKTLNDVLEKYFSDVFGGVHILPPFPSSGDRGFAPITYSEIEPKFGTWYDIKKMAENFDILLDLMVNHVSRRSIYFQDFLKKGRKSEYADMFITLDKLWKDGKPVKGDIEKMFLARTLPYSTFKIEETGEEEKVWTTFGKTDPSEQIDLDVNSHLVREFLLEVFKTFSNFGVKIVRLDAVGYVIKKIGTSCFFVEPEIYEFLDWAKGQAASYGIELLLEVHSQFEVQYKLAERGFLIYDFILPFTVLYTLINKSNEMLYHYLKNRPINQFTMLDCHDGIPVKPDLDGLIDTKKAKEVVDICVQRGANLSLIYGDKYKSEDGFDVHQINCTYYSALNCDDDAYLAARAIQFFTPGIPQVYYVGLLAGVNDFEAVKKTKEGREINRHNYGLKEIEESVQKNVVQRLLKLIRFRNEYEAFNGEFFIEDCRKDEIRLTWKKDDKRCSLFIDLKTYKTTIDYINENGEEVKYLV
Method: (§1) Kinetics of enzyme variants on resveratrol were determined in an aqueous system containing 20% ionic liquid AMMOENG 101 (kindly provided by Evonik Industries AG) to dissolve the acceptor in a range of 0 to 200 mM. At this concentration of ionic liquid, the kinetic parameters of the enzyme for its natural substrates are not affected. Reactions were started combining 8.5 μM heat purified enzymes, 1 M sucrose and the respective acceptor-concentration at 55° C. To determine the initial velocity, samples were taken every 15 minutes for one hour, and inactivated by ten-fold dilution in pure ethanol. Product formation was again quantified by TLC and ImageJ analysis, using purified resveratrol 3-alpha-glucoside as TLC-standard and a respective standard curve for calculations. Kinetic parameters were calculated by non-linear regression of the Michaelis-Menten equation with Sigma Plot v13.0. All experiments were performed in triplicate to obtain kinetic parameters as reproducible mean values±standard errors.

[2] = biological target: Thermoanaerobacterium thermosaccharolyticum sucrose phosphorylase (TtSPP) variant R134V, SEQ ID No 2 (Thermoanaerobacterium thermosaccharolyticum, UniProt D9TT09, R134V); experiment: Kinetics of resveratrol glycosylation by variant R134V (co-substrate sucrose); assay type: biochemical; conditions: 1M sucrose as co-substrate, pH 6.5, 55° C., 20% AMMOENG 101
Thermoanaerobacterium thermosaccharolyticum sucrose phosphorylase (TtSPP) variant R134V, SEQ ID No 2, sequence (D9TT09 whole entry R134V): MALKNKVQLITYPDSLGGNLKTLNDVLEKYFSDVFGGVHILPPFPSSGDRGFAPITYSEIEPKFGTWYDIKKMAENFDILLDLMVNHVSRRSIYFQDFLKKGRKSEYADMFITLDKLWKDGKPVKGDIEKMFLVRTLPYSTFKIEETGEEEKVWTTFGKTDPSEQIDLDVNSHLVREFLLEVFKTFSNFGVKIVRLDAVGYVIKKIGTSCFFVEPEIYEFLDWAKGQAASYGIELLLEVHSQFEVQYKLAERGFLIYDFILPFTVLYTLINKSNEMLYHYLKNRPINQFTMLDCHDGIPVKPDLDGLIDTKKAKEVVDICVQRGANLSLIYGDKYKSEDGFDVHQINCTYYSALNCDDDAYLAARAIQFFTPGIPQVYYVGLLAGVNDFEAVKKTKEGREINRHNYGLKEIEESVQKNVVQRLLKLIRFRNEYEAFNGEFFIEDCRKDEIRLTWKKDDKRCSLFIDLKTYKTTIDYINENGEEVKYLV
Method: as §1

[3] = test system: Thermoanaerobacterium thermosaccharolyticum sucrose phosphorylase (TtSPP), EC 2.4.1.329, wild type; conditions: sucrose as glycosyl donor; Verhaeghe et al., 2014; cited from earlier work
[4] = Screening assay, transglycosylation activity on resveratrol (semi-quantitative TLC); assay type: biochemical; conditions: 1 gL^−1 enzyme, 10 gL^−1 acceptor, 1 M sucrose, pH 6.5, 37° C., 16 h; FIG. 1
Method: (§2) Heat-purified proteins (for tests on different acceptors) or crude protein extracts (for library screening) were incubated to a final concentration of 1 gL^−1 with 10 gL^−1 acceptor and 1 M sucrose in 50 mM MOPS-buffer at pH 6.5. Assays were performed at 37° C. in microtiterplates shaking at 200 rpm. The product amounts were evaluated after 16 h by semi-quantitative TLC-analysis: 1 μl of each sample solution was spotted on a Silica-plate (TLC-Silica gel 60 F254, Merck Millipore) and run in a solvent system from ethylacetate:methanol:water (30:5:4, v/v/v). Plates were oxidized with 10% sulphuric acid and spot intensities were determined using ImagaJ.

[5] = Screening assay, transglycosylation activity on quercetin (semi-quantitative TLC); assay type: biochemical; conditions: 1 gL^−1 enzyme, 10 gL^−1 acceptor, 1 M sucrose, pH 6.5, 37° C., 16 h; FIG. 2 A
Method: as §2

[6] = substrate: Oc1ccc(/C=C/c2cc(O)cc(O)c2)cc1; experiment: Kinetics of resveratrol glycosylation by variant R134T (co-substrate sucrose); assay type: biochemical, Thermoanaerobacterium thermosaccharolyticum; conditions: other: variant R134T, 1M sucrose as co-substrate, pH 6.5, 55° C., 20% AMMOENG 101
Method: as §1

[7] = Qualitative survey of promiscuity on diverse polyphenolic acceptors; assay type: biochemical; conditions: FIG. 2 B
Method: as §2

[8] = Production of resveratrol 3-alpha-glucoside in aqueous system, followed by HPLC; assay type: biochemical; conditions: 1 M sucrose, saturated suspension of 10 g·L^−1 resveratrol, 24 h, 55° C., pH 6.5
Method: Up-scaling of the transglycosylation reactions on resveratrol was performed up to 400 ml volumes. Reactors were stirred continuously at 55° C. for 24 h, and contained 1 M sucrose, 1 mgL^−1 enzyme and 10 gL^−1 of resveratrol (suspension) in 50 mM MOPS-buffer pH 6.5. Thanks to the quantitative conversion of resveratrol, its glucoside could be simply isolated by repeated ethylacetate extractions to a purity of >90%. The solvent was evaporated and the dried product analyzed by HPLC to determine purity and yield. To verify the identity of the compound by NMR and to produce the standards (TLC, H PLC), further purification was performed by column chromatography on silica gel (EtOAC:MeOH:H2O; 30:5:4; v/v/v) as described earlier (De Winter et al, 2013).
Reactions were followed for 24 h. […] Supernatants were filtered through a 0.2 μm polystyrol filter, diluted in DMSO and analyzed by HPLC using a polar Waters XBridge Amide column (250×4.6 mm, 3.5 μm) and an Alltech 2000ES ELSD-detector (40° C., gas flow 1.5 Lmin^−1), supplied with a gradient mixture of eluent A (acetonitrile, 0.2% triehtylamine) and eluent B (0.2% triethylamine): 90% solvent A (6 min), 10-25% solvent B (stepwise, 3% min^−1), 25% solvent B (20 min) and 90% solvent A (10 min). Concentrations of ingredients and respective yields were calculated according to standards of fructose, glucose and resveratrol 3-alpha-glucoside.

Which kcat [1] does the source give for Oc1ccc(/C=C/c2cc(O)cc(O)c2)cc1 [resveratrol, trans-3,4′,5-trihydroxystilbene] here?
The kcat was 2.36 ± 0.25 s⁻¹.

What about the kcat [2] of the same molecule?
The kcat was 0.45 ± 0.02 s⁻¹.

With OC[C@H]1O[C@@](CO)(O[C@H]2O[C@H](CO)[C@@H](O)[C@H](O)[C@H]2O)[C@@H](O)[C@@H]1O [sucrose] as the molecule, how does the Km [3] read?
The Km was 77 mM.

B1: BaSP: wild-type thermostable sucrose phosphorylase of Bifidobacterium adolescentis (protein, UniProt A0ZZH6 1-504, looked up)
Sucrose phosphorylase: MKNKVQLITYADRLGDGTIKSMTDILRTRFDGVYDGVHILPFFTPFDGADAGFDPIDHTKVDERLGSWDDVAELSKTHNIMVDAIVNHMSWESKQFQDVLAKGEESEYYPMFLTMSSVFPNGATEEDLAGIYRPRPGLPFTHYKFAGKTRLVWVSFTPQQVDIDTDSDKGWEYLMSIFDQMAASHVSYIRLDAVGYGAKEAGTSCFMTPKTFKLISRLREEGVKRGLEILIEVHSYYKKQVEIASKVDRVYDFALPPLLLHALSTGHVEPVAHWTDIRPNNAVTVLDTHDGIGVIDIGSDQLDRSLKGLVPDEDVDNLVNTIHANTHGESQAATGAAASNLDLYQVNSTYYSALGCNDQHYIAARAVQFFLPGVPQVYYVGALAGKNDMELLRKTNNGRDINRHYYSTAEIDENLKRPVVKALNALAKFRNELDAFDGTFSYTTDDDTSISFTWRGETSQATLTFEPKRGLGVDNTTPVAMLEWEDSAGDHRSDDLIANPPVVA
Which “transglycosylation activity on resveratrol” value [4] does the source give for B1 here?
Its value is “Neither of these enzymes display significant activity on resveratrol”.

What about the “transglycosylation activity on quercetin” value [5] of the same molecule?
Its value is “neither had activity on quercetin”.

B2: Thermoanaerobacterium thermosaccharolyticum sucrose phosphorylase (TtSPP) variant R134T, SEQ ID No 3 (Thermoanaerobacterium thermosaccharolyticum DSM 571; … (protein)
chain: MALKNKVQLITYPDSLGGNLKTLNDVLEKYFSDVFGGVHILPPFPSSGDRGFAPITYSEIEPKFGTWYDIKKMAENFDILLDLMVNHVSRRSIYFQDFLKKGRKSEYADMFITLDKLWKDGKPVKGDIEKMFLTRTLPYSTFKIEETGEEEKVWTTFGKTDPSEQIDLDVNSHLVREFLLEVFKTFSNFGVKIVRLDAVGYVIKKIGTSCFFVEPEIYEFLDWAKGQAASYGIELLLEVHSQFEVQYKLAERGFLIYDFILPFTVLYTLINKSNEMLYHYLKNRPINQFTMLDCHDGIPVKPDLDGLIDTKKAKEVVDICVQRGANLSLIYGDKYKSEDGFDVHQINCTYYSALNCDDDAYLAARAIQFFTPGIPQVYYVGLLAGVNDFEAVKKTKEGREINRHNYGLKEIEESVQKNVVQRLLKLIRFRNEYEAFNGEFFIEDCRKDEIRLTWKKDDKRCSLFIDLKTYKTTIDYINENGEEVKYLV
For B2, which Km [6] is on record?
Its Km is 56 ± 8 mM.

What about the kcat [6] of the same molecule?
The kcat was 0.08 ± 0.004 s⁻¹.

And the kcat/Km [6]?
The kcat/Km was 1.4 ± 0.2 M⁻¹ s⁻¹.

B3: R134A: variant R134A of TtSPP sucrose phosphorylase from Thermoanaerobacterium thermosaccharolyticum (protein)
chain: MALKNKVQLITYPDSLGGNLKTLNDVLEKYFSDVFGGVHILPPFPSSGDRGFAPITYSEIEPKFGTWYDIKKMAENFDILLDLMVNHVSRRSIYFQDFLKKGRKSEYADMFITLDKLWKDGKPVKGDIEKMFLARTLPYSTFKIEETGEEEKVWTTFGKTDPSEQIDLDVNSHLVREFLLEVFKTFSNFGVKIVRLDAVGYVIKKIGTSCFFVEPEIYEFLDWAKGQAASYGIELLLEVHSQFEVQYKLAERGFLIYDFILPFTVLYTLINKSNEMLYHYLKNRPINQFTMLDCHDGIPVKPDLDGLIDTKKAKEVVDICVQRGANLSLIYGDKYKSEDGFDVHQINCTYYSALNCDDDAYLAARAIQFFTPGIPQVYYVGLLAGVNDFEAVKKTKEGREINRHNYGLKEIEESVQKNVVQRLLKLIRFRNEYEAFNGEFFIEDCRKDEIRLTWKKDDKRCSLFIDLKTYKTTIDYINENGEEVKYLV
modifications: mutant of sucrose phosphorylase of bacterium Thermoanaerobacterium thermosaccharolyticum
For B3, which “transglycosylation activity on resveratrol” value [4] is on record?
Its value is “retained more than half of its activity on resveratrol”.

And the “transglycosylation activity on quercetin” value [5]?
Its value is “significant amounts of transglycosylation product could be detected”.

What about the “activity on flavonoids and phenoxyphenols (acceptor promiscuity)” value [7] of the same molecule?
Its value is “displayed activity on structures from all five major classes of flavonoids”.

And the “resveratrol 3-alpha-glucoside produced” value [8]?
Its value is 17.1 ± 0.6 g/L.

And the “conversion of resveratrol (acceptor)” value ([8]; FIG. 3)?
Its value is “complete conversion of the acceptor”.
